We go through twelve molecules from patent US20260201043A1 (INSTITUT NATIONAL DE LA RECHERCHE SCIENTIFIQUE, published 2026).

The chains are these.
T1: recombinant human galectin-13 (human, UniProt Q9UHV8 1-139, biotinylated for the phage ELISA; labeled with FITC for the HepG2 cell binding assay)
T1 sequence (looked up): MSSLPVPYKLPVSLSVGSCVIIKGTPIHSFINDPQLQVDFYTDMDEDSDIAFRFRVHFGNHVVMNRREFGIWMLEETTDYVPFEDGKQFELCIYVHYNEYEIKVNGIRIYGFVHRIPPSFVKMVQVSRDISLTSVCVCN

B1: G13N9 (VHH, not shown: small tags and cut ends)
VHH: EVQLQASGGGFVQPGGSLRLSCAASGRGSALTTMGWFRQAPGKEREFVSAISGDTGLYVYYADSVKGRFTISRDNSKNTVYLQMNSLRAEDTATYYCAGKWLGGRQADTRYWGQGTQVTVSS
B2: G13N1 (VHH, not shown: small tags and cut ends)
VHH: EVQLQASGGGFVQPGGSLRLSCAASGFGSNRSTMGWFRQAPGKEREFVSAISSLSSDPPYYADSVKGRFTISRDNSKNTVYLQMNSLRAEDTATYYCAPAGMRGVMEYWGQGTQVTVSS
B3: G13N5 (VHH, not shown: small tags and cut ends)
VHH: EVQLQASGGGFVQPGGSLRLSCAASGYTSNEDSMGWFRQAPGKEREFVSAISRGPSFRTYYADSVKGRFTISRDNSKNTVYLQMNSLRAEDTATYYCAIRLGRLYRYGDLTPKSAYYWGQGTQVTVSS
B4: G13N6 (VHH, not shown: small tags and cut ends)
VHH: EVQLQASGGGFVQPGGSLRLSCAASGRTSSLTSMGWFRQAPGKEREFVSAISFSGSMFTYYADSVKGRFTISRDNSKNTVYLQMNSLRAEDTATYYCADKWMHKPANYWGQGTQVTVSS
B5: G13N4 (VHH, not shown: small tags and cut ends)
VHH: EVQLQASGGGFVQPGGSLRLSCAASGSSYAGSAMGWFRQAPGKEREFVSAISSDPDTKAYYADSVKGRFTISRDNSKNTVYLQMNSLRAEDTATYYCAISGQYPYARYWGHGTQVTVSS
B6: G13N3 (VHH, not shown: small tags and cut ends)
VHH: EVQLQASGGGFVQPGGSLRLSCAASGRGSRWYGMGWFRQAPGKEREFVSAISAQHSTRAYYADSVKGRFTISRDNSKNTVYLQMNSLRAEDTATYYCAGYMSKMGERKWKYWGQGTQVTVSS
B7: G9N1 (VHH)
VHH: EVQLQASGGGFVQPGGSLRLSCAASGDTSGEYSMGWFRQAPGKEREFVSAISDQGGIEIYYADSVKGRFTISRDNSKNTVYLQMNSLRAEDTATYYCAHTFYDMPDGYRQYWGQGTQVTVSS
notes: Synthetic humanized sdAb; on M13 phage in the screening ELISA, purified with His and cMyc tags and immobilized in wells otherwise; also called GAL-9-specific sdAb G9N1; not shown: 6xHis and cMyc tags from vector pHEN2
B8: G9N3 (VHH)
VHH: EVQLQASGGGFVQPGGSLRLSCAASGDGSGWDIMGWFRQAPGKEREFVSAISRHDTTYSYYADSVKGRFTISRDNSKNTVYLQMNSLRAEDTATYYCATIPASWNKSYWGQGTQVTVSS
notes: Synthetic humanized sdAb; on M13 phage in the screening ELISA, purified with His and cMyc tags and immobilized in wells otherwise; also called GAL-9-specific sdAb G9N3; not shown: 6xHis and cMyc tags from vector pHEN2
B9: G9N4 (VHH)
VHH: EVQLQASGGGFVQPGGSLRLSCAASGGTWRWTIMGWFRQAPGKEREFVSAISRTNSEYQYYADSVKGRFTISRDNSKNTVYLQMNSLRAEDTATYYCAEPTAVWADKGQEMQSYWGQGTQVTVSS
notes: Synthetic humanized sdAb; on M13 phage in the screening ELISA, purified with His and cMyc tags and immobilized in wells otherwise; also called GAL-9-specific sdAb G9N4; not shown: 6xHis and cMyc tags from vector pHEN2
B10: G13N8 (VHH)
VHH: EVQLQASGGGFVQPGGSLRLSCAASGTTWQETKMGWFRQAPGKEREFVSAISRGPNYYPYYADSVKGRFTISRDNSKNTVYLQMNSLRAEDTATYYCADEWMGSINARGHSGYYWGQGTQVTVSS
notes: Synthetic humanized sdAb; on M13 phage in the screening ELISA, purified with His and cMyc tags otherwise; also called GAL-13 sdAb G13N8; not shown: 6xHis and cMyc tags from vector pHEN2
B11: G13N10 (VHH)
VHH: EVQLQASGGGFVQPGGSLRLSCAASGRTSNQTIGWFRQAPGKEREFVSAISARFDEYGYYADSVKGRFTISRDNSKNTVYLQMNSLRAEDTATYYCALGWPQKSTWRAYTAEYWGQGTQVTVSS
notes: Synthetic humanized sdAb; on M13 phage in the screening ELISA, purified with His and cMyc tags otherwise; also called Nb #10; GAL-13 sdAb G13N10; not shown: 6xHis and cMyc tags from vector pHEN2
B12: G13N2 (VHH)
VHH: EVQLQASGGGFVQPGGSLRLSCAASGSTSRSSGMGWFRQAPGKEREFVSAISYRGSGARYYADSVKGRFTISRDNSKNTVYLQMNSLRAEDTATYYCAMWQRQIQPGTRPVWKYWGQGTQVTVSS
notes: Synthetic humanized sdAb; on M13 phage in the screening ELISA, purified with His and cMyc tags otherwise; also called GAL-13 sdAb G13N2; not shown: 6xHis and cMyc tags from vector pHEN2

T3 sequence (O00182 1-148 limits assumed): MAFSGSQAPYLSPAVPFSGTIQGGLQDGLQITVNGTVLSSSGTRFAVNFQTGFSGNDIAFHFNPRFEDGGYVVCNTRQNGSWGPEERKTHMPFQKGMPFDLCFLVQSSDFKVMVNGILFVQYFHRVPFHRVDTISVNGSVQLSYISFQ

One assay deals with T1, recombinant human galectin-13. As to the kind of experiment: cell-based or functional assay.
As to B1, the “inhibition of galectin-13-induced apoptosis of Jurkat T cells” value (“inhibition” below) was -33%.

Consider B2, for which the “inhibition” value is -27%. Consider B3, for which the “inhibition” value is -44%.

Consider B4, for which the “inhibition” value is -27%. In the case of B5, the “inhibition” value was -31%. Still for that read-out and setting: the same measure for B6: -23.5%.

The next assay has the same target. As to the kind of experiment: ELISA: sdAb immobilized at 1 µM, 5 µM galectin. On the procedure:
Briefly, Nbs were immobilized at 1 μM for 1 h at RT, followed by blocking with PBS containing 10% (v/v) BSA and 0.05% (v/v) Tween™ 20. 5 μM of galectin were incubated for 1 h at RT. […] The colorimetric assay was carried out with 3,3′,5,5′-tetramethylbenzidine per the manufacturer's recommendations. Data (mean values±SD) from one experiment is shown. Statistical differences were assessed using Dunnett's multiple comparisons test. RT=room temperature
(In general: In an ELISA, binding on a coated surface is turned into a signal by an enzyme label.)
B7: the binding result was “binds”. For B8, the binding result is recorded as “binds”.

The target in a further assay is T2, recombinant C-terminal domain of human GAL-9 (human, UniProt O00182 210-355).
T2 construct: also called GAL-9C; GAL-9C (210-355)
T2 sequence (O00182 210-355 limits assumed): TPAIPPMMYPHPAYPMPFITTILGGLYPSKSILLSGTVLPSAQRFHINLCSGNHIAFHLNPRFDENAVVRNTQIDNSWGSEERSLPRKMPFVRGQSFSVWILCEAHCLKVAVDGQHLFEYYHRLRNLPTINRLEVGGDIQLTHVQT
As to the kind of experiment: ELISA: sdAb immobilized at 1 µM, 5 µM GAL-9C. On the procedure:
(§1) FIGS. 19A-B show the binding of recombinant N-terminal domain of human GAL-9 (GAL-9N, FIG. 19A) and recombinant C-terminal domain of human GAL-9 (GAL-9C, FIG. 19B) to GAL-9-specific sdAbs as measured by ELISA. Briefly, sdAbs were immobilized at 1 μM for 1 h at RT, followed by blocking with PBS containing 10% (v/v) BSA and 0.05% (v/v) Tween™ 20. 5 μM of recombinant GAL-9N or GAL-9C were incubated for 1 h at RT. […] The colorimetric assay was carried out with 3,3′,5,5′-tetramethylbenzidine per the manufacturer's recommendations. Data (mean values±SD) from three independent experiments is shown. Statistical differences were assessed using Tukey's multiple comparisons test. RT=room temperature.
As for B8, the binding result is recorded as “binds”. As for B9, the binding result was “binds”.

A further assay addresses T1, recombinant human galectin-13. As to the kind of experiment: non-adsorbed phage ELISA on biotinylated GAL-13.
B10: the binding result is recorded as “binds”. B11: the binding result is “binds”.

Take B12: the binding result was “binds”.

A further assay concerns the target T3, recombinant N-terminal domain of human GAL-9 (human, UniProt O00182 1-148).
T3 construct: also called GAL-9N; Gal-9N
As to the kind of experiment: ELISA: sdAb immobilized at 1 µM, 5 µM GAL-9N. On the procedure:
as §1
On to B7, for which the binding result is on record as “binds”. On to B8, for which the binding result was “binds”. On the same count and under the same terms, in the case of B9 it was “binds”.
